The values below come from PMC9569350, “Antarctic aldehyde dehydrogenase from Flavobacterium PL002 as a potent catalyst for acetaldehyde determination in wine” (Scientific Reports, 2022).

Series [1] concerns CC=O. In words: purified protein. Particulars: 10 mM NAD+ (saturating), 100 mM potassium phosphate pH 7.5, 25 °C, free enzyme.
Series [2] deals with NC(=O)c1ccc[n+]([C@@H]2O[C@H](COP(=O)(O)OP(=O)(O)OC[C@H]3O[C@@H](n4cnc5c(N)ncnc54)[C@H](O)[C@@H]3O)[C@@H](O)[C@H]2O)c1. The series can be described thus: purified protein. Particulars: 10 mM acetaldehyde (saturating), 100 mM potassium phosphate pH 7.5, 25 °C, free enzyme, varied: cofactor.

Regarding S2-ALDH (Flavobacterium sp. PL002), in series [1], the Km was found to be 1880 ± 700 µM, the Vmax is 2.64 µmol/min/mg, the kcat is 0.432 ± 0.025 s⁻¹ and the kcat/Km was 230 ± 85.2 M⁻¹ s⁻¹. Also, in series [2], the Km amounted to 2870 ± 480 µM, the Vmax was 0.74 µmol/min/mg, the kcat came out at 0.121 ± 0.026 s⁻¹ and the kcat/Km is 42.2 ± 7.05 M⁻¹ s⁻¹.

Usually Km stands for the substrate concentration at which the rate is half of its maximum. As a reminder, the Vmax is the rate approached at saturating substrate. As a reminder, the kcat is the number of substrate molecules converted per active site and unit of time at saturation. The term kcat/Km denotes the turnover number divided by the Michaelis constant.
